The values below are quoted from earlier work in publication PMC3114466.

Values joined by “and” are separate entries in the source; they are usually repeats but may differ in a detail not shown here. Identical values can stand only once.

The subject of this data set is His. Conditions: free model compound in solution (inferred).

As to “Capped histidine model compound (acetyl-histidine-methylamide) (synthetic)”, the pKa (as a rule, the negative logarithm of the acid dissociation constant) was 6.42 and 6.92 and 6.53.
